Source: the supplement of paper PMC9170038

Legend:
MS2 coat protein [1] = assay: apparent KD of MS2 coat protein, switch ON state; designed switch direction (-1 OFF switch, 1 ON switch): -1; higher = weaker reporter binding; settings: FMN input: 0 or 200 uM; Eterna round: R93 (includes R88 designs)
Summary of the method: (§1)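 For every design, apparent KD is the median of normalised binding-curve fits from its clusters. The RNA switches were transcribed on-chip from Illumina sequencing clusters and titrated with SNAP-549-labelled MS2 coat protein (twofold steps, 0.7 or 1.5 nM to 3 µM; 0.8–1.5 h to 10–20 min per step). Titrations used 100 mM Tris-HCl pH 7.5, 80 mM KCl, 4 mM MgCl2, without or with constant ligand.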

MS2 coat protein [2] = assay: apparent KD of MS2 coat protein, switch OFF state (with FMN for OFF switches, without FMN for ON switches); designed switch direction (-1 OFF switch, 1 ON switch): -1; higher = weaker reporter binding; settings: FMN input: 0 or 200 uM; Eterna round: R93 (includes R88 designs)
Summary of the method: as §1

Sequence	apparent KD of MS2 coat protein (MS2 coat protein [1]) [nM]	apparent KD of MS2 coat protein (MS2 coat protein [2]) [nM]
AAGAAGUAAGGAUAUCGGAGAGAACAAGAAAGUGAAGAAUACGAGAAGGUACAUGAGGAUCACCCAUGUAAAGA [EXC - 4]	26.9	19
AUGUACCUAGGAUAUACAUGAGGAUCACCCAUGUACUGGGAGCAAUCAAGUUAAUAUUGUAGAAGGAGGUGAAA [JR_Exc003_Sub315]	20.1	58.6
AAAAAACAUGAGGAUCACCCAUGUUAGGAUAUGCUAUGGAAAAAUAAAAUAAAACAUAGCAGAAGGGACAAAAA [Mat - Exclusion 1 - Eli mod - D28]	15	38.3
AAAAAACAUGAGGAUCACCCAUGUAAGGAUAUGCUAAAAAACACGGAAAAACGUGAUAGCAGAAGGUACAAAAG [Mat - Exclusion 1 - Eli mod - D87]	25.5	31.2
AAAUAGUUAGGAUAUACAUGAGGAUCACCCAUGUGGACUUAUGGAGAAUAAUUUAGUGGUAGAAGGGACUAAAA [EX2 Malc#27]	46.4	44.6
AGAAAGUCAGGAUAUACGAAAAAAAAGGGAAACAACAAGGGACAUGAGGAUCACCCAUGUAGAAGGGACAAGAA [Diamond 98]	92.8	140
AAGGUAUAAGGAUAUGCAUAGAUACAGACACAUGUUCAAGUACAUGAGGAUCACCCAUGUAGAAGGUAUAUAUA [AJ 12]	32.2	26
AGCUAGUGAGGAUAUACGAACAAGUCAACGGACUGUAAGGGACAUGAGGAUCACCCAUGUAGAAGGCACUAGCA [Diamond 58]	29.4	148
AGCUAGUCAGGAUAUACGAACAUGUCAAAAGACGUGAACGGACAUGAGGAUCACCCAUGUAGAAGGGACUAGCA [Diamond 5]	16.2	17.5
AACAGUACAGGAUAUACAUGAGGAUCACCCAUGUGAAAAUUAAGUGGCGAACCACAAUGUAGAAGGGUACUGGA [Mat - Exclusion 3 - Eli mod - D47]	81.9	25.9
CUCUAGUCAGGAUAUGCAAGAAAAGAAGAGAAAGAAAAGAAGCAGAAGGGACAUGAGGAUCACCCAUGUAAGAA [EteRNA is fun!]	51.3	83.4
AACCCGCUAGGAUAUACAGCAGGGAUUCGAAAACCCACGAAACAUGAGGAUCACCCAUGUAGAAGGAGUAGGGA [Bereatenat]	22.7	21.1
CUCAAGUCAGGAUAUAUAAGAAAAGAAGAGAAAGAAAAGAAAUAGAAGGGACAUGAGGAUCACCCAUGUAAGAA [EteRNA is fun!]	34.5	36.9
AAGAAGUGAGGAUAUACAAAAUAAAAGAAAAGAAAGAAAGAACAUGAGGAUCACCCAUGUAGAAGGCGCAAGAA [Merhotepre Ini]	24.5	24.9
AACUGACAUGAGGAUCACCCAUGUCAGGAUAUGCUUCAUAAAAAAAAAAAAAAAUGAUGCAGAAGGGACAUGGG [Design 32 :P Sub-opt 8]	41.6	110
AGUUGGCGAGGAUAUACAUGAGGAUCACCCAUGUGAAAGAAAAAAGUGAAAAAGCAAAGUAGAAGGCGCUGACA [73%, Moding Norbert Elias, 5]	34.9	192
AAAAUGUCAGGAUAUCUGGAUAGGAAAAAGAAAACCUAUCCAGAGAAGGGACAUGAGGAUCACCCAUGUAAAAA [JL cataway mod 3]	92.9	171
AAAAAGUCAGGAUAUGUAGCAAAAGGUGAUCAAAAAAAGCUACAGAAGGGACAUGAGGAUCACCCAUGUAAAAA [Ex4: 937]	139	156
GAGAAGUUAGGAUAUACAGCGGGUAGCCGCGGUGGCCUUAGACAUGAGGAUCACCCAUGUAGAAGGAACGAAAA [Tebied]	28.9	12.6
AACUGACAUGAGGAUCACCCAUGUCAGGAUAUGCUUCAUAAAAAGAAAUAAAAAUGAUGCAGAAGGGAUAUGGG [Design 34 :P Sub-opt 10]	24.6	37.1
AAAGGUGCAGGAUAUGCGUGGAAAAAGUGUAUUCAAAAAAAACAUGAGGAUCACCCAUGUAGAAGGGUACCAAA [MS2 Riboswitches On Chip Exclusion 2 wbt2]	55.7	165
AUCGAUCGAGGAUAUACAUGAGGAUCACCCAUGUAAAAAAAAAAAAAGUCCUCAGGACGUAGAAGGCGACGCAA [JR_Exc003_Sub401]	16.6	22.3
AAAAAUUGAGGAUAUACAUGAGGAUCACCCAUGUUAGACCUAAAAAAAGGGAAAGAAAGUAGAAGGCAAUAAAA [Ex 3 May 28]	14.6	18.8

Sequence	apparent KD of MS2 coat protein (MS2 coat protein [1]) [nM]	apparent KD of MS2 coat protein (MS2 coat protein [2]) [nM]
UCCUCACAUGAGGAUCACCCAUGUGAGGAUAUCUGAAAAAAAAAAAAAAAAAAAAAUCAGAGAAGGCACAUGGG [Design 11: Super Stable Short Helix 1]	37.1	4.55
AAAAAUCGAGGAUAUACAUGAGGAUCACCCAUGUUAGAAAAUGAUUACACAAAAGAAAGUAGAAGGCGAUAAAA [Ex 3 May 20]	27.9	23.4
GGAUGUGUAGGAUAUACAUGAGGAUCACCCAUGUGAGAGAAAAAAGUGAGAAAGAAAAGUAGAAGGACGUGUCG [salish99-ex3-89]	41	38
AGCAAACAUGAGGAUCACCCAUGUUAGGAUAUGAACGAAAUAAAAUAAAAAUAAAAGUUCAGAAGGGACGAGCA [Mat - Exclusion 1 - Eli mod - D27]	22.4	37.1
AAGAAACAUGAGGAUCACCCAUGUGAGGAUAUCGAAAAGAAAAGAAAAGAAAGAAGAACGAGAAGGCACAAAGG [Neferkare (V) Tereru]	52.7	76.2
GGUUGGCGAGGAUAUACAUGAGGAUCACCCAUGUGAGAGAAAAAAGUGAGAAAGAAAAGUAGAAGGCGCUGACC [salish99-ex3-04]	45.7	242
AUAAAACAUGAGGAUCACCCAUGUGAGGAUAUGCGAAAAUAAAUAAAAUAAAAUAAAAGCAGAAGGUACAAAUA [LROPPY Exclusion 1 - v04_deltaG=2.5 breakup some As]	29.3	40.2
AAAAAACAUGAGGAUCACCCAUGUAAGGAUAUGUAAAAUAAAAGAAAAAUAAAGAAAAGCAGAAGGUAUAUGUA [JL wbt mod 17]	29	24.7
AAAACGGUAGGAUAUACGAUUGGGAACUAGACCGAGGAACCACAUGAGGAUCACCCAUGUAGAAGGGCCAAAAA [Ex2 Malc#14]	16.9	16.7
AAAAGACAUGAGGAUCACCCAUGUGAGGAUAUGACGUAAAUAAAGAAAGAAGAAAUCGUCAGAAGGCACACCUA [55%, Disencluded 2, 1]	29.5	63.4
CGUCCACAUGAGGAUCACCCAUGUUAGGAUAUCUAUACUAAAUACAAAACCCAAGUCAAGAGAAGGAGCAGGGC [Teteeresve]	13.9	12
AAAAAGUGAGGAUAUACGUUGAAAAAAAAAAAAAAAAAGGCGUAGAAGGCACAUGAGGAUCACCCAUGUAAAAA [Ex4 Malc#5]	56	77.4
AUAGUACAUGAGGAUCACCCAUGUCAGGAUAUGCGAAACGAAAAAAAAAAAAAGUGAAGUAGAAGGGACUAUAA [EX1 Malc#9]	29.8	30.4
AACAGUACAGGAUAUACAUGAGGAUCACCCAUGUGAGAAACCAGUGGCGUACCACAAAGUAGAAGGGUACUGGA [Moding Maslow Revisited (73) 28]	42.4	185
AAAAGAAAAGGAUAUAAAAAGAAAAGUCAGGAUAUAGGAAACUAGAAGGGACAUGAGGAUCACCCAUGUAAAAG [Meechl Ex4 R2 m2]	35.9	71.9
AAGAACCGAGGAUAUACAUGAGGAUCACCCAUGUAAAAGAAAGAAAAGGGAAAGAAAAGUAGAAGGCGGAAGAA [Aakheperenre Thutmose II]	42.8	55.5
AAAUAGCAAGGAUAUACAUGAGGAUCACCCAUGUGAAAAAGAUAUGGAAUAGAAUAGAGUAGAAGGUGCAAAUA [Ex 3 Tesla 8]	40.4	54.1
GUAGUGUGAGGAUAUGGAAAGAAGAAGAAAAGGUAGAAAAACUAGAAGGCACAUGAGGAUCACCCAUGUAAGAA [JR_Exc004_Sub1710]	29.1	20.3
AAAGGACGAGGAUAUACAUGAGGAUCACCCAUGUAAAAAGCGUAAUAAAAGAACUUAUGUAGAAGGCGUCCAAA [Meechl Ex3 2 R2 v1]	45	66.8
UAAAGACAUGAGGAUCACCCAUGUGAGGAUAUCGGAGAUAACGGAACAUCAAGUUCGGCGAGAAGGCGCAGGAA [JR_Exc001_Sub405]	33.4	38
AAGAAACAUGAGGAUCACCCAUGUGAGGAUAUGCAAGAAAGAAAGAAAGAAAGAAGAAGCAGAAGGCACAAAGG [Gaius Turranius]	42.4	65.9
AACGGGCUAGGAUAUACACAAGCCUCAGAACAAAUAAACAAACAUGAGGAUCACCCAUGUAGAAGGAGCGCAAA [Lesocerean]	30.6	42.9
